These results are taken from patent publication US20260085338A1.

Assay [1] addresses phi15 RNA polymerase (Pseudomonas phage phi15). The assay can be described thus: cell-based or functional assay.
Assay [2] has as its target P. putida RNA polymerase (Pseudomonas putida). The assay can be described thus: cell-based or functional assay.

For Pf-10 lysozyme (enzyme), the decrease in msfGFP output (leakiness of the phi15 RNAP; P. putida, 4 mM Rha) in assay [1] was 84%.
With phi15 lysozyme (G3RQ) (enzyme), in assay [1], the fold induction (FITC-A of +RNAP,-lys against -RNAP,+lys), P. aeruginosa turned out to be 130 fold; the fold induction (FITC-A of +RNAP,-lys against -RNAP,+lys), P. putida was determined as 9.64 fold; the induced (%) cells with FITC-A above 10^4, P. aeruginosa, -RNAP +lys was 5.94%; the induced (%) cells with FITC-A above 10^4, P. putida, -RNAP +lys was 66.7%. In assay [1], this substance registered a leaky expression (msfGFP; P. putida, 5 mM Rha) (nM 5(6)-FAM/OD600) of 11; a leaky expression from the phi15 RNAP (msfGFP; P. aeruginosa, 5 mM rhamnose) (5(6)-FAM/OD600) of 29; a leaky expression from the phi15 RNAP against the wild-type phi15 lysozyme (P. aeruginosa, 5 mM rhamnose) of 13 fold lower; a median FITC-A, flow cytometry, P. aeruginosa, -RNAP +lys (5 mM Rha) of 527 FITC-A. In assay [1], this substance displayed a median FITC-A, flow cytometry, P. putida, -RNAP +lys (5 mM Rha) of 12700 FITC-A.
The substance Phi15 GP16 RNA polymerase inhibitor gave a cell growth (OD600) of P. putida after induction with 10 mM Rha in assay [2] of 1.4 OD600.
In turn, phi15 lysozyme (G3R) (enzyme) yielded a leaky expression (msfGFP; P. putida, 5 mM Rha) (nM 5(6)-FAM/OD600) in assay [1] of 57.
As for phi15 lysozyme (wild-type) (enzyme), in assay [1], the fold induction (FITC-A of +RNAP,-lys against -RNAP,+lys), P. aeruginosa worked out at 7.36 fold; the fold induction (FITC-A of +RNAP,-lys against -RNAP,+lys), P. putida was 4.1 fold; the induced (%) cells with FITC-A above 10^4, P. aeruginosa, -RNAP +lys was 77.5%; the induced (%) cells with FITC-A above 10^4, P. putida, -RNAP +lys amounted to 80%. For the same substance, in assay [1], the leaky expression (msfGFP; P. putida, 5 mM Rha) (nM 5(6)-FAM/OD600) was found to be 122; the leaky fluorescence with lysozyme induced (P. putida, 4 mM Rha) (nM 5(6)-FAM/OD600) came out at 77; the median FITC-A, flow cytometry, P. aeruginosa, -RNAP +lys (5 mM Rha) came to 33400 FITC-A; the median FITC-A, flow cytometry, P. putida, -RNAP +lys (5 mM Rha) was 17800 FITC-A.
Consider “phi15 lysozyme (AA1-9>Pf-10 (AA1-10)) (enzyme)”, for which, in assay [1], the leaky expression (msfGFP; P. putida, 5 mM Rha) (nM 5(6)-FAM/OD600) stood at 23.
